Where “and” joins values, the source holds several entries; their conditions need not be identical. Identical values can stand only once.
Legend:
[1] = target: Porcine tubulin dimer (porcine); assay: SPR Biacore T200, tubulin dimer amine-coupled to CM5, gp120 3.13-100 nM as analyte, 1:1 model; one of two experiments
[2] = target: Porcine tubulin dimer (porcine); assay: SPR Biacore T200, tubulin dimer immobilised, 1:1 model; mean of two experiments
[3] = target: assembled microtubules (containing ~25% of TUBB3) (porcine) (UniProt F1S6M7); assay: SPR Biacore T200, assembled MTs immobilised, 1:1 model; mean of two experiments
[4] = target: Human recombinant TUBB3 (human) (UniProt Q13509); assay: SPR Biacore T200, 60 sec injection of 100 nM over immobilised tubulin β-3, reference-subtracted
Chain of Human recombinant TUBB3 (human) (Q13509 whole entry): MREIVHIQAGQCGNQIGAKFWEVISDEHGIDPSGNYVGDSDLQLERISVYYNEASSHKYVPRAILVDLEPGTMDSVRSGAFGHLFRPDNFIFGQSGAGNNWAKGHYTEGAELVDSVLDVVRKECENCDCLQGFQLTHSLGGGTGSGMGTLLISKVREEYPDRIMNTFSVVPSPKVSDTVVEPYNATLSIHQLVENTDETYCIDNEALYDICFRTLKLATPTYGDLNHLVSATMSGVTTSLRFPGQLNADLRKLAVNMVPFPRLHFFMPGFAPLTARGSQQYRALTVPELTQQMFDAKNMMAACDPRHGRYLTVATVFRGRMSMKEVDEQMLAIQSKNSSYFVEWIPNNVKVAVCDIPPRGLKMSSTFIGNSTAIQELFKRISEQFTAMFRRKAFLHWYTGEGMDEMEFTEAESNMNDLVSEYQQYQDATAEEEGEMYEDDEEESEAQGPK

[5] = target: assembled microtubules (containing ~25% of TUBB3) (porcine) (UniProt F1S6M7); assay: SPR Biacore T200, 60 sec injection of 100 nM over immobilised microtubules, reference-subtracted
[6] = target: Porcine tubulin dimer (porcine); assay: SPR Biacore T200, 60 sec injection of 100 nM over immobilised tubulin dimer, reference-subtracted
[7] = target: assembled microtubules (containing ~25% of TUBB3) (porcine) (UniProt F1S6M7); assay: SPR Biacore T200, assembled MTs amine-coupled to CM5, gp120 3.13-100 nM as analyte, 1:1 model; one of two experiments
[8] = target: Human recombinant TUBB3 (human) (UniProt Q13509); assay: SPR Biacore T200, TUBB3 immobilised, 1:1 model; mean of two experiments
[9] = target: Human recombinant TUBB3 (human) (UniProt Q13509); assay: SPR Biacore T200, TUBB3 amine-coupled to CM5, gp120 3.13-100 nM as analyte, 1:1 model; one of two experiments

Substance | Kd [1] | Kd [2] [nM] | Kd [3] [nM] | response (2-1) RU [4] | response (4-1) RU [5] | response (3-1) RU [6] | Kd [7] | Kd [8] [nM] | Kd [9]
gp120IIIB (from UniProt P04578 33-511) | 1.69 nM and 7.68 nM | 12.3 | 10 | 35 RU and 44 RU | 15 RU and 23.2 RU and 19 RU | 14 RU and 18.6 RU and 21 RU | 1.16 nM and 8.46 nM |  | 
gp120ADA | 5.4 nM and 1.71 nM | 11.2 | 12 |  |  |  | 5.62 nM and 1.83 nM | 10.3 | 5.48 nM and 15.2 nM

Reference: patent US20150239933A1
